Data taken from patent US5614192A, “T cell receptor peptides as therapeutics for immune-related disease” (Connective Therapeutics, Inc., priority 1993, dated 1997).
“And” between values parts separate entries of the source, which are not always exact repeats. Identical values can stand only once. Like-named read-outs stand apart in the source and are kept apart here. Ends that are not written are not given here.

How the values were obtained:
clone C455-69 = assay: Proliferation response of clone C455-69 to BP peptides (Table 28); assay type: cell-based, rat
Method: Proliferation assays: Proliferation assays were performed in 96-well microtiter plates. 2×10^4 T cells and 10^6 irradiated thymocytes/well were incubated with stimulation medium only, ConA, or antigen at 37C in 7% CO2. The cultures were incubated for 72 h, the last 18 h in the presence of 0.5 Bq ^3 H-Tdr. The cells were harvested onto glass fiber filters and TCR uptake was assessed by liquid scintillation. Mean CPM wre calculated from triplicate wells. The standard deviation from replicate wells varied <10% from the mean values.
the homologous RtBP sequence. Five μg/ml ConA or 50 μg/ml of each

[1] = system: lymph node cells and Vβ8-44-54 selected T cell line
peptide-selected T cells = assay: Proliferation of peptide-selected T cells after in vivo TCR peptide treatment (Table 24); assay type: cell-based, Lewis rats
Text: LN cells from control rats responded best to Con A, PPD, GPBP and GPBP (72-89), and GPBP (45-89) (which includes the 72-89 sequence and another immunogenic but non-encephalitogenic peptide). […] LN cells from rats treated ID with the TCR peptide esponded similarly to the control cells, with the exception of a reduced response to GPBP (72-89). […] An aliquot of each of the above 3 groups of LN cells was stimulated in culture with either GPBP or with the TCR peptide for 3 days, and the cells expanded in IL-2 for 5 more days. The proliferative responses to the various antigens and mitogens of these selected T cells were examined, as above.

[2] = system: LN cells and T cell lines; assay: Proliferation of LN cells and lines from rats protected by transfer of TCR Vβ8 peptide-specific T cells (Table 15); assay type: cell-based, rat
Method: ^1 Lymph node (LN) cells were collected 20 days after simultaneous
^2 LN cells were tested directly (NL column).
^3 T cell lines were selected from these LN cells by culture with TCR

[3] = system: T cell lines derived from rats protected from EAE; assay: Proliferation of LN cells and T cell lines from rats protected by TCR Vβ8 peptide (Table 12); assay type: cell-based, rat
popliteal LN cells = assay: Proliferation of LN cells after EAE induction and TCR peptide treatment (Table 23); assay type: cell-based, Lewis rats
Method: The proliferative responses and specificity of T cells in the draining LN (popliteal) of rats treated with TCR Vβ8(39-59) peptide for EAE on day 13 after disease induction were examined (Table 23). On day 0, Lewis rats received an EAE-inducing regimen of GP-BP+CFA SC into their hind footpads. […] On day 20, about 7 days after onset of EAE, popliteal LNs were removed and T cell proliferative activity in response to the indicated antigens or mitogens were tested directly.
Results are shown as net ^3 Hthymidine incorporation of 5 ×

LNC and T cell lines = assay: T cell proliferation after treatment of EAE with TCR Vβ8 39-59/CFA (Table 27); assay type: cell-based, rats
Method: Lymphocyte Proliferation: Activation of T cells was measured by ^3 H-Tdy uptake. 500,000 lymph node cells or 20,000 line cells in the presence of 1 million irradiated thymic accessory cells were incubated with culture medium and antigens in microtiter wells for 18 hours prior to the addition of 0.5 μBq labeled thymidine. The cell cultures were harvested onto glass fiber filters and counted by liquid scintillation techniques. Mean CPM were calculated from triplicate cultures. Standard deviations (SD) from replicate cultures varied <10% from the mean value.
^a Treated rats were injected s.q. with 50 μg TCR Vβ839-59
^b LW cells collected after the untreated group recovered from EAE

[4] = 50 μg/ml peptide (5 μg/ml ConA), 20,000 clone C455-69 cells, 3 days

APKRGSGKDSH HAARTTH (APKRGSGKDSHHAARTTH) [43-67, Gp-BP fragment 43-67 (printed from residue 50)]
Response CPM/1000 ± S.D. (clone C455-69; [4]): 249 ± 12 CPM/1000

APKRGSGKDSH HAARTTHYG (APKRGSGKDSHHAARTTHYG) [50-69]
Response CPM/1000 ± S.D. (clone C455-69; [4]): 277 ± 14 CPM/1000

Concanavalin A [Con A, reference compound]
Response of Lymph Node Cells [1]: 293 ± 39
Response of T Cell Line, percent (in parentheses) [1]: 88% and 93% and 106%
Proliferative response (peptide-selected T cells): 76 and 52 and 68 and 95
Response CPM/1000 ± S.D. (clone C455-69): 229 ± 15
Proliferation, TCR Peptide Selected Line [2]: 46
T Cell Proliferation [3]: 99 and 96 and 80 and 123
T Cell Proliferation (popliteal LN cells): 85 and 78 and 146

LRLIHYSYDVN [Vβ8-44-54, LRLIHYSYDVN]
inhibition of T cell response ([1]; 72 h): 76%

SGKDSH HATRTTHYGSLPQK [55-74 modified]
Response CPM/1000 ± S.D. (clone C455-69; [4]): 150 ± 15 CPM/1000

B1: Rat BP: rat myelin basic protein (protein, UniProt P02688 2-195, looked up)
Myelin basic protein: ASQKRPSQRHGSKYLATASTMDHARHGFLPRHRDTGILDSIGRFFSGDRGAPKRGSGKVPWLKQSRSPLPSHARSRPGLCHMYKDSHTRTTHYGSLPQKSQRTQDENPVVHFFKNIVTPRTPPPSQGKGRGLSLSRFSWGAEGQKPGFGYGGRASDYKSAHKGFKGAYDAQGTLSKIFKLGGRDSRSGSPMARR
Proliferation (LNC and T cell lines; Treated rats (TCR Vβ8 39-59/CFA at onset), LNC): 49 ± 2 CPM/1000
Proliferation (LNC and T cell lines; Treated rats, line BP/1st): 14 ± 2 CPM/1000
Proliferation (LNC and T cell lines; Treated rats, line Vβ8/1st): 4 ± 1 CPM/1000
Proliferation (LNC and T cell lines; Untreated rats (GPBP/CFA only), LNC): 40 ± 2 CPM/1000
Proliferation (LNC and T cell lines; Untreated rats, line BP/1st): 46 ± 3 CPM/1000
Proliferation (LNC and T cell lines; Untreated rats, line Vβ8/1st): 11 ± 4 CPM/1000
Proliferative response (peptide-selected T cells; day 13 inj. Control, selection with GPBP): 46
Proliferative response (peptide-selected T cells; day 13 inj. TCR Vβ 8(39-59) + CFA, selection with GPBP): 14
Proliferative response (peptide-selected T cells; day 13 inj. TCR Vβ 8(39-59) + CFA, selection with Vβ 8(39-59)): 4
Proliferative response (peptide-selected T cells; day 13 inj. TCR Vβ 8(39-59) ID, selection with CPBP (so in the source)): 36
Response CPM/1000 ± S.D. (clone C455-69; [4]): 0.2 ± 0.1 CPM/1000
T Cell Proliferation ([3]; 1st value column (head not given; LN cells of protected rats)): 11 cpm × 10^-3
T Cell Proliferation ([3]; 2nd value column (head not given, TCR Vβ8(39-59)-selected line)): 1 cpm × 10^-3
T Cell Proliferation ([3]; 4th value column (head not given; mixed TCR- and BP-specific T cells)): 9 cpm × 10^-3
T Cell Proliferation ([3]; GPBP-selected line): 9 cpm × 10^-3
